Consider two proteins from publication doi:10.1101/2025.05.22.655525 (bioRxiv, 2025).

Series [1] concerns the molecule itself. Nature of the series: crystal structure.
Series [2] concerns the molecule itself. In words: crystal structure. The source holds these as a separate data set.

Read-outs that look alike come from different tables or passages of the source.

B1: human syntenin-1 PDZ tandem (PDZ1-PDZ2), residues 113-276 (domain or fragment, UniProt O00560 113-276, looked up)
chain: REVILCKDQDGKIGLRLKSIDNGIFVQLVQANSPASLVGLRFGDQVLQINGENCAGWSSDKAHKVLKQAFGEKITMTIRDRPFERTITMHKDSTGHVGFIFKNGKITSIVKDSSAARNGLLTEHNICEINGQNVIGLKDSQIADILSTSGTVVTITIMPAFIFE
On to B1, for which, in series [1], the binding result is reported as “binds”.

B2: human syntenin-1 PDZ tandem (PDZ1-PDZ2), residues 113-273 (domain or fragment, UniProt O00560 113-273, looked up)
chain: REVILCKDQDGKIGLRLKSIDNGIFVQLVQANSPASLVGLRFGDQVLQINGENCAGWSSDKAHKVLKQAFGEKITMTIRDRPFERTITMHKDSTGHVGFIFKNGKITSIVKDSSAARNGLLTEHNICEINGQNVIGLKDSQIADILSTSGTVVTITIMPAF
In the case of B2, the binding result in series [2] is on record as “binds”.
